For one substance, reduction in binding against wild-type HA results are on record in paper PMC2141715.

The test addresses calreticulin (canine pancreas microsomes) (dog (endogenous in canine pancreas microsomes)) (UniProt P28490). Briefly: co-IP.

Consider “HA glycosylation mutant Δ483 (natural protein)”, for which the reduction in binding against wild-type HA worked out at 40%.
